Test results published in patent US7078514 (dated 2006).
No end group written: not given here.

Target: T1, recombinant chicken GHRH receptor (chicken)
T1 construct: Full-length cloned receptor; also called cGHRH receptor; cloned chicken GHRH receptor
T1 chain: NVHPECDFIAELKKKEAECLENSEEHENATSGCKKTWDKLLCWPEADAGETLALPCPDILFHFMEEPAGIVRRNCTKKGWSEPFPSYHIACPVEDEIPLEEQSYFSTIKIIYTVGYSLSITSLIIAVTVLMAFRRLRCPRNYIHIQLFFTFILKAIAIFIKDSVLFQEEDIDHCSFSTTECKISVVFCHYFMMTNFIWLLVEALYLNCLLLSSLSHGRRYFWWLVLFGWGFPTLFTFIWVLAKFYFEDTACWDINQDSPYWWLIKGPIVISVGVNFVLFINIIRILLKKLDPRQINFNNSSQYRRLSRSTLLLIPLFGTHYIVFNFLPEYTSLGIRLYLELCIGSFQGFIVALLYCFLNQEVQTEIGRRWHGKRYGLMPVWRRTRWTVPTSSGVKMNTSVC
Experiment: competition with labeled hGHRH at recombinant chicken GHRH receptor

binding result: no binding
B1: chicken GHRH polypeptide (asparagine^21), previously reported chicken GHRH (ligand)
peptide: HADGIFSKAYRKLLGQLSARNYLHSLMAKRVGGASSGLGDEAEPLS
modifications: not fully specified
notes: also called cGHRH(Asp^21); published polypeptide
